Source: patent US20240044920A1 (Alexion, published 2024)

T1: human ceruloplasmin (human, UniProt P00450 20-1065)
T1 construct: also called CP; purified CP
T1 sequence: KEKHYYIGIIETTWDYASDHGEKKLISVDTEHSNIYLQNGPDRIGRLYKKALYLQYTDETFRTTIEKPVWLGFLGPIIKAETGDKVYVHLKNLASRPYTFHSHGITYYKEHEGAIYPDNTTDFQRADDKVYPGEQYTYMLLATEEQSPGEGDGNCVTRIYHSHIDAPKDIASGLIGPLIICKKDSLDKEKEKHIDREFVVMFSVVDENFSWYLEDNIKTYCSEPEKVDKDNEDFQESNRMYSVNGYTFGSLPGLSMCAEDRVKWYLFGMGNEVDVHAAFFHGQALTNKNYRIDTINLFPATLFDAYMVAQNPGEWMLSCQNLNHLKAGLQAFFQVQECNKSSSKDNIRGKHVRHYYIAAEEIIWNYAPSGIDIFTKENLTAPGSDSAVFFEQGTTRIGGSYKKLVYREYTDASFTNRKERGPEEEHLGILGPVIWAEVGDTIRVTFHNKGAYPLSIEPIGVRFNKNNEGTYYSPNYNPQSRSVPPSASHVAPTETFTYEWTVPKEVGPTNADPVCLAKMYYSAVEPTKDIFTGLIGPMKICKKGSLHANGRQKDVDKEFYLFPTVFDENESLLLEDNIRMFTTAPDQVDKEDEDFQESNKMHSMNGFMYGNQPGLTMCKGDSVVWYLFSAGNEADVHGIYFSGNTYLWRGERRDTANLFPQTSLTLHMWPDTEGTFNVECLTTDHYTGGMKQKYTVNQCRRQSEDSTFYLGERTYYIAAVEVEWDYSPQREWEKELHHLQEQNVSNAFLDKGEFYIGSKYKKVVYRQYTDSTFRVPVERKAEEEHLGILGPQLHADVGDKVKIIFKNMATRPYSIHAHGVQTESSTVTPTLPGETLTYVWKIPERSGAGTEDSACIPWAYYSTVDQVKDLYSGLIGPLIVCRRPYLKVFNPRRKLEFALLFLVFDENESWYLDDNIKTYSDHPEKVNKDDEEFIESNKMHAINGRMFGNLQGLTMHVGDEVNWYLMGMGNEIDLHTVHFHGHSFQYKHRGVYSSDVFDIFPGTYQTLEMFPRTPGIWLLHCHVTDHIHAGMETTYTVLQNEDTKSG

B1: anti-CP mAb C (antibody, V domains shown)
VH: QSVEESGGRLVTPGTPLTLTCTASGFSLSRYYMSWVRQAPGKGLEWIGMIYPSSGSTWYASWVKGRFTISATATSVDLKITSPTTEDTATYFCVRDRYPGYNGDSFNLWGQGTLVTVSS
VL: AQVLTQTASPVSAAVGSTVTINCQASQSVYNNNYLAWFQQKPGQPPKRLIYQASKLAIGVPSRFSGSGSGTQFTLTISDVQCDDAATYYCLGSYGCNSVDCNVFGGGTEVVVKG
notes: Recombinant full-length rabbit IgG from HEK-293; also called mAb2
B2: anti-CP mAb B (antibody, V domains shown)
VH: QQQLEESGGGLVKPGGTLTLTCKASGIDFSSYYYMCWVRQAPGKGLEWIACIYVIDDTIYCANWAKGRFTISKTSSTTVTLQMTSLTAADTATYFCARDGSSGIRDYFDLWGPGTLVTVSS
VL: AYDMTQTPASVEVAVGGTVTIKCQASESVSTWLAWYQQKPGQPPKLLIYKASDLASGVPSRFKGSGSGTEFTLTISGVECADAATYYCQQGYTYNNVENVFGGGTEVVVKG
notes: Recombinant full-length rabbit IgG from HEK-293; tested as conditioned medium, Protein A-purified and biotinylated
B3: anti-CP mAb D (antibody, V domains shown)
VH: QEQLVESGGGLVQPEGSLTLTCKASGFDFSSYWMCWVRQAPGKRPEWIACIYGGDGTSYFAGWAKGRFTISKTSSTTVTLQMTSLTAADTATYFCARADYYVYVDGGYGHAYDLWGPGTLVTVSS
VL: DIVMTQTPASVEAAVGGSVTIKCQASDDIYSYLAWYQQKPGQPPKLLIFDASSLPSGVPSRFKGSGSGTQFTLTISGVQCADAATYYCQNYYGSSSSVHAFGGGTEVVVKG
notes: as for B2
B4: anti-CP mAb H (antibody, V domains shown)
VH: QSVEESGGRLVTPGTPLTLTCTVSGFSLSTYAMGWVRQAPGKGLEYIGIIYGGSGTFYASWAKGRFTISKTSTTVDLKITSPTTEDTATYFCARDGDDSYFDYFNLWGQGTLVTVSS
VL: AAVLTQTPASVSAAVGGTVSISCQSNENIGSNLAWYQQKPGQPPKLLIYGASTLTSGVPSRFKGSGSGTAFTLTISGVQCDDAATYYCLGGYLSTSDTTFGGGTAVVVKG
notes: as for B2
B5: anti-CP mAb G (antibody, V domains shown)
VH: QSLEESGGRLVTPGTLLTLTCTVSGFSLSSNAMSWVRQAPGEGLEWIGTISSRGSTYYANWAKGRFTISKTSTTVDLKITSPTTEDTATYFCARSSLAGYEPYYFKLWGQGTLVTVSS
VL: DVVMTQTASPVSAAVGGTVTIKCQASESISSYLAWYQQKPGQPPKLLIYGASDLASGVPSRFKGSGSGTEFTLTISDLECADAATYYCQSYYGLSRNGYGNVFGGGTEVVVKG
notes: Recombinant full-length rabbit IgG from HEK-293; also called mAb3
B6: anti-CP mAb A (antibody, V domains shown)
VH: QSLEESGGDLVKPGASLTLTCKASGFDLSRFYYMCWVRQAPGKGLEWIACIYAGRTGNTYYASWAKGRFTISKTSSTTVTLQMTSLTAADTATYFCARASGDFLAYTYAMDLWGPGTLVTVSS
VL: AAVLTQTPASVSAAVGGTVTISCQASQSVDNNNYLAWYQQKPGQPPKLLIYEASKLASGVPSRFSGSGSGTQFTLTISDVQCDDATTYYCAGGYSSSADANAFGGGTEVVVKG
notes: as for B2

Target: T1, human ceruloplasmin
Experiment: competition ELISA on coated CP, biotinylated probe; competitor: mAb A
Method: (§1) To assess whether any of the 8 anti-CP antibodies competed with each other for binding to CP, the following ELISA study was performed.
(§2) Briefly, CP was coated onto plates at 0.4 ug/mL overnight. Plates were then blocked with 1% BSA for 4 hours, incubated with 10 ug/mL unlabeled blocking antibody for 1 hour, and then, without washing, 50 ng/mL of biotinylated probe antibody for 1 hour. Plates were washed and subsequently incubated with SA-HRP for 30 minutes, followed by another wash. Plates were then incubated with TMB substrate for either 30 minutes or 15 minutes, as noted below, and the reaction was stopped by adding 0.18 M sulfuric acid and read at A450. The experiment was performed on two plates with plate 1 having a TMB incubation time of 30 minutes and plate 2 having a TMB incubation time of 15 minutes. Weaker binders to coated CP were tested on plate 1 and stronger binders on plate 2, with some duplication across plates. Probe Ab/blocking Ab interactions are shown in Table 3, and a summary of the binning results for all 8 anti-CP mAbs and for the 5 mAbs showing the most robust signal on coated CP (as shown in FIG. 6) is provided in Tables 4 and 5.

Going from B1 to B2, the “probe binding, % of diluent control” value falls from 100% to 94%.

Going from B3 to B4, the “probe binding, % of diluent control” value falls from 107% to 93%.

For B5, the “probe binding, % of diluent control” value was 91%.

Target: T1, human ceruloplasmin
Experiment: competition ELISA on coated CP, biotinylated probe; competitor: mAb B
Method: as §1, §2

First: B1
Second: B6
The “probe binding, % of diluent control” value of the first is lower: 95% for the first, 183% for the second.

Compared with B3, B4 is higher in “probe binding, % of diluent control” value: 98% for the first, 110% for the second.

For B5, the “probe binding, % of diluent control” value was 93%.

Target: T1, human ceruloplasmin
Experiment: competition ELISA on coated CP, biotinylated probe; competitor: mAb C
Method: as §1, §2

Compared with B2, B6 is higher in “probe binding, % of diluent control” value: 78% for the first, 138% for the second.

First: B3
Second: B4
The “probe binding, % of diluent control” value of the first is higher: 72% for the first, 67% for the second.

With B5 the “probe binding, % of diluent control” value was 108%.

Target: T1, human ceruloplasmin
Experiment: competition ELISA on coated CP, biotinylated probe; competitor: mAb D
Method: as §1, §2

Going from B1 to B2, the “probe binding, % of diluent control” value falls from 93% to 34%.

Going from B6 to B4, the “probe binding, % of diluent control” value falls from 113% to 33%.

With B5 the “probe binding, % of diluent control” value was 103%.

Target: T1, human ceruloplasmin
Experiment: competition ELISA on coated CP, biotinylated probe; competitor: mAb E
Method: as §1, §2

First: B1
Second: B2
The “probe binding, % of diluent control” value of the first is higher: 99% for the first, 87% for the second.

Going from B6 to B3, the “probe binding, % of diluent control” value falls from 127% to 98%.

First: B4
Second: B5
The “probe binding, % of diluent control” value of the first is lower: 79% for the first, 102% for the second.

Target: T1, human ceruloplasmin
Experiment: competition ELISA on coated CP, biotinylated probe; competitor: mAb F
Method: as §1, §2

Compared with B1, B2 is lower in “probe binding, % of diluent control” value: 97% for the first, 95% for the second.

First: B6
Second: B3
The “probe binding, % of diluent control” value of the first is lower: -2% for the first, 100% for the second.

First: B4
Second: B5
The “probe binding, % of diluent control” value of the first is higher: 94% for the first, 84% for the second.

Target: T1, human ceruloplasmin
Experiment: competition ELISA on coated CP, biotinylated probe; competitor: mAb G
Method: as §1, §2

Going from B1 to B2, the “probe binding, % of diluent control” value rises from 97% to 98%.

First: B6
Second: B3
The “probe binding, % of diluent control” value of the first is lower: 35% for the first, 100% for the second.

With B4 the “probe binding, % of diluent control” value was 95%.

Target: T1, human ceruloplasmin
Experiment: competition ELISA on coated CP, biotinylated probe; competitor: mAb H
Method: as §1, §2

Compared with B1, B2 is higher in “probe binding, % of diluent control” value: 85% for the first, 204% for the second.

Compared with B6, B3 is lower in “probe binding, % of diluent control” value: 115% for the first, 9% for the second.

B5 was tested, and the “probe binding, % of diluent control” value was 106%.

Target: T1, human ceruloplasmin
Experiment: competition ELISA on coated CP, biotinylated probe; competitor: CP-pAb
Method: as §1, §2

First: B1
Second: B2
The “probe binding, % of diluent control” value of the first is higher: 3% for the first, 2% for the second.

Going from B6 to B3, the “probe binding, % of diluent control” value falls from 17% to 10%.

Compared with B4, B5 is higher in “probe binding, % of diluent control” value: 2% for the first, 6% for the second.

Target: T1, human ceruloplasmin
Experiment: capture ELISA: mAb (CM, 50 ng/mL) on anti-rabbit IgG-Fc; 20 ng/mL purified human CP
Method: (§3) Ceruloplasmin binding by the 28 recombinant anti-CP mAbs was tested as follows. Clear 96-well plates (Nunc, Maxisorp) were coated and incubated overnight at 4 degrees with 10 ug/mL goat anti-rabbit IgG-Fc (Bethyl Laboratories) in BupH carbonate-bicarbonate buffer (ThermoFisher). The coating solution was discarded, and the plates were blocked with 1% BSA in PBS at room temperature for 2 hours and then the blocking solution was discarded. The 28 anti-CP mAb transient conditioned media were diluted to 50 ng/mL in PBS-T containing 1% BSA and incubated on the blocked plates for 1 hour at room temperature. Negative control wells were incubated with PBS-T containing 1% BSA alone or with transient conditioned medium containing non-CP-specific rabbit mAb at 50 ng/mL.

First: B1
Second: B2
The A450 of the first is higher: 1.09 A450 for the first, 1.02 A450 for the second.

First: B6
Second: B3
The A450 of the first is higher: 1.09 A450 for the first, 1.03 A450 for the second.

Compared with B4, B5 is higher in A450: 0.924 A450 for the first, 0.987 A450 for the second.

Target: T1, human ceruloplasmin
Experiment: capture ELISA: mAb (CM, 50 ng/mL) on anti-rabbit IgG-Fc; endogenous CP in Li-heparin human plasma 1:10,000
Method: as §3

Compared with B1, B2 is higher in A450: 1.27 A450 for the first, 1.32 A450 for the second.

Going from B6 to B3, the A450 falls from 1.4 A450 to 1.25 A450.

First: B4
Second: B5
The A450 of the first is lower: 1.03 A450 for the first, 1.18 A450 for the second.
